Assay results: patent US12168686

How the values were obtained:
[1] = biological target: soluble DR5-Fc fusion protein (UniProt O14763); test: BLI (ForteBio Octet), ratio of koff against TRAIL-Trimer
[2] = biological target: soluble DR5-Fc fusion protein (UniProt O14763); test: BLI (ForteBio Octet), ratio of kon against TRAIL-Trimer
[3] = biological target: soluble DR5-Fc fusion protein (UniProt O14763); test: BLI (ForteBio Octet), biotin-labeled DR5-Fc on streptavidin sensors
[4] = biological target: soluble DR5-Fc fusion protein (UniProt O14763); test: BLI (ForteBio Octet), biotin-labeled DR5-Fc on streptavidin sensors, analyte 15.4 nM-123.5 nM

native TRAIL (recombinant soluble human TRAIL from E. coli), sequence (P50591 114-281 limits assumed): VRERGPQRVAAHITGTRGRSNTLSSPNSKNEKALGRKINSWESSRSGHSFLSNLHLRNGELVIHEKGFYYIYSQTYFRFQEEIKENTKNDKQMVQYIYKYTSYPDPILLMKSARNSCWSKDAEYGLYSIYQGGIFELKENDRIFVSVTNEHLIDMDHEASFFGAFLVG
soluble DR5-Fc fusion protein, sequence (O14763 56-182 limits assumed): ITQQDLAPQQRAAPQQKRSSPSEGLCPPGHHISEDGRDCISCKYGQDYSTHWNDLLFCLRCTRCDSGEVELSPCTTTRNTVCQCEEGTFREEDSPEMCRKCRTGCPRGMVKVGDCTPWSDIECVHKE

native TRAIL (recombinant soluble human TRAIL from E. coli) (from UniProt P50591 114-281) (ligand)
fold faster dissociation than TRAIL-Trimer [1]: > 460 fold
fold faster association than TRAIL-Trimer [2]: 2 fold
koff [3]: 4.6e-05 s⁻¹
kon [3]: 175000 M⁻¹ s⁻¹
Kd [4]: 0.263 nM
